Results taken from the Human Domainome abundance scans (Beltran et al. 2025).

B1: Nuclear receptor subfamily 4 group A member 2, residues 260 to 336; numbered along this chain, P43354 (parent)
chain: EGLCAVCGDNAACQHYGVRTCEGCKGFFKRTVQKNAKYVCLANKNCPVDKRRRNRCQYCRFQKCLAVGMVKEVVRTD
B2: Transcription elongation factor A N-terminal and central domain-containing protein, residues 30 to 77; numbered along this chain, Q8N8B7 (parent)
chain: LTELETIYVTKEHLQETDVVRAVYRVLKNCPSVALKKKAKCLLSKWKA

Variants of: B1
Experiment: abundance fitness (aPCA) (normalised: wild type 0, dead -1); higher = more abundant; growth selection in yeast, the domain comes from the species named
Details: Homo sapiens

Abundance fitness, by site and new letter:
R75: C 0.057 | M 0.019 | W -0.103 | G 0.033 | T 0.214 | L 0.015 | D -0.136 | E 0.094 | A -0.01 | Q 0.065 | I -0.017 | S 0.063 | N 0 | Y -0.112 | V 0
R60: L 0.047 | W 0.014 | G -0.648 | C 0.101 | F -0.115 | I -0.355 | V 0.01 | S -0.033 | M 0.053 | E -0.651
Q62: V -0.137 | F -0.31 | S 0.018 | R -0.234 | I -0.241 | C -0.153 | E -0.245 | A -0.095 | N -0.38 | D -0.139 | M 0.079 | K 0.079 | G -0.297 | W -0.345 | L -0.137
Y58: R -0.345 | F 0.051 | G -0.298 | D -0.123 | V -0.761 | W -0.063 | A 0.041 | C -0.173 | L -0.441 | S 0.129 | E -0.055
F61: W -0.05 | S -0.235 | G -1.01 | M 0.072 | I 0.007 | T -0.377 | V -0.401 | L 0.057 | Q -0.187 | D -0.745 | C -0.701 | R -0.989
V67: A -0.029 | S -0.097 | M -0.035 | D -0.728 | F -0.449 | I 0.058 | E -0.017 | W -0.706 | H -0.088 | G -0.261 | K 0.086 | R -0.134 | L -0.078 | T -0.06 | C -0.114
A66: K -0.2 | T -0.223 | E -0.051 | G -0.013 | I -0.099 | F -0.228 | V -0.17 | M -0.032 | R -0.114 | C -0.21 | L 0.005 | N 0.101 | D 0.135 | W -0.282
G68: M -0.085 | N -0.126 | I -0.481 | V -0.836 | C -0.489 | L -0.589 | A -0.26 | F -0.436 | R -0.314 | S -0.287 | E -0.63 | D -0.403
C64: I -0.399 | G -0.277 | L -0.372 | W -0.859 | R -0.608 | A -0.163 | F -0.848 | S -0.397
L65: E -0.038 | A -0.146 | N 0.153 | T -0.659 | W -0.299 | Y -0.317 | I -0.274 | S -0.308 | G -0.264 | V -0.096 | M -0.262
Q57: A 0.068 | W -0.28 | F -0.177 | V -0.126 | Y -0.158 | E -0.083 | S 0.083 | P 0.187 | M 0.463 | L -0.034 | R -0.289
T76: V -0.019 | R 0.015 | L -0.228 | F -0.079 | C 0.109 | M -0.166 | I -0.007 | W -0.085 | A 0.117 | N 0.221 | D 0.098 | P -0.004 | S -0.014 | Q -0.152 | Y 0.168 | E 0.161 | K -0.041
N54: T -0.555 | R -0.15 | E -0.244 | Q -0.032 | P -0.34 | S 0.148 | D 0.135 | V -0.094 | W -0.015 | L -0.123 | A -0.148 | C -0.472 | F -0.143 | I 0.164 | G 0.06
R53: Y -0.3 | V 0.019 | L -0.12 | S 0.084 | I -0.043 | G 0.06 | E -0.034 | D -0.175 | C -0.078 | A 0.078 | M -0.28 | F -0.101 | Q 0.172
K71: L -0.078 | Q 0.33 | R -0.054 | P 0.141 | W -0.194 | Y 0.114 | I -0.19 | E -0.046 | D -0.296 | A 0.008 | F -0.258 | M -0.352 | G -0.081
E72: A -0.133 | L -0.468 | P 0.116 | S -0.012 | I -0.173 | G -0.067 | K 0.154 | V -0.268 | D 0.11 | M -0.099 | W -0.276 | C -0.344 | F -0.267 | T 0.092 | N 0.024
R51: E 0.082 | T 0.166 | M 0.019 | C -0.188 | V -0.035 | L 0.042 | W 0.054 | F 0.064 | Y -0.109 | G -0.001
D77: W -0.211 | L -0.101 | I -0.347 | G -0.042 | S -0.124 | R -0.3 | C -0.061 | A -0.006 | E 0.117 | V -0.122 | M -0.092 | K -0.1 | F -0.229 | P 0.163
V70: W -0.255 | S -0.053 | G -0.017 | A 0.06 | F -0.095 | E 0.062 | K -0.208 | R -0.013 | P -0.197 | M -0.055 | I 0.102 | L -0.023
C56: L -1.09 | R -1.06 | V -1.05 | S -0.667 | D -0.707 | E -0.894 | G -1.05 | F -1.21 | A -0.941 | W -0.908
V74: D 0.131 | I 0.091 | G -0.013 | A -0.1 | C -0.098 | L -0.052 | R -0.118 | S -0.101 | W -0.208 | K -0.025 | F -0.148
R55: L 0.035 | W -0.026 | D -0.065 | G -0.023 | Y 0.038 | V 0.024 | M -0.089 | A -0.134 | S -0.164 | C -0.028 | E -0.035
M69: W -0.235 | A -0.191 | C -0.247 | L -0.07 | G -0.463 | D -0.704 | S -0.627 | F -0.042 | E -0.448 | I -0.618 | R -0.64 | V -0.285
V73: L -0.065 | C -0.131 | F 0.02 | A -0.258 | W -0.104 | M -0.032 | R -0.099 | E -0.063 | S -0.305 | G -0.024 | T 0.274 | H 0.014 | D -0.105
K63: T 0.038 | R -0.206 | M -0.025 | G -0.559 | A -0.048 | L -0.354 | D -0.52 | E -0.898 | V -0.304 | W -0.569
C59: F -1.03 | W -1.33 | A -0.549 | V -0.919 | E -0.318 | R -1.17
R52: E 0 | Y 0.204 | F -0.08 | D 0.002 | L -0.043 | V -0.021 | S -0.31 | G 0.065 | C -0.061 | K 0.041 | A 0.025 | M -0.021 | W 0.01

Variants of: B2
Experiment: as above
Details: Homo sapiens

Abundance fitness: each site, then its substitutions
L14: P -0.049
K36: I -0.152
I7: Y -0.422
A34: Q -0.464
Q15: L -0.352
